Assay results reported in doi:10.1101/824458 (bioRxiv, 2019).

B1: VAP-33-ΔC20 (recombinant human VAP-33 protein, residues 1-227) (domain or fragment, UniProt Q9P0L0 1-227, looked up)
chain: MASASGAMAKHEQILVLDPPTDLKFKGPFTDVVTTNLKLRNPSDRKVCFKVKTTAPRRYCVRPNSGIIDPGSTVTVSVMLQPFDYDPNEKSKHKFMVQTIFAPPNTSDMEAVWKEAKPDELMDSKLRCVFEMPNENDKLNDMEPSKAVPLNASKQDGPMPKPHSVSLNDTETRKLMEECKRLQGEMMKLSEENRHLRDEGLRLRKVAHSDKPGSTSTASFRDNVTSP
B2: viperin-ΔN50 (residues 50-361), recombinant, C-terminal His6-tagged, iron-sulfur cluster reconstituted (domain or fragment, human, UniProt Q8WXG1 50-361, looked up)
chain: QLVLRGPDETKEEEEDPPLPTTPTSVNYHFTRQCNYKCGFCFHTAKTSFVLPLEEAKRGLLLLKEAGMEKINFSGGEPFLQDRGEYLGKLVRFCKVELRLPSVSIVSNGSLIRERWFQNYGEYLDILAISCDSFDEEVNVLIGRGQGKKNHVENLQKLRRWCRDYRVAFKINSVINRFNVEEDMTEQIKALNPVRWKVFQCLLIEGENCGEDALREAERFVIGDEEFERFLERHKEVSCLVPESNQKMKDSYLILDEYMRFLNCRKGRKDPSKSILDVGVEEAIKFSGFDEKMFLKRGGKYIWSKADLKLDW

How the values were obtained:
[1] = target: NS5A-ΔN39 (residues 39-447), recombinant, lacking the membrane-binding amphipathic helix (hepatitis C virus) (UniProt Q9WMX2); test: cross-linking
[2] = target: the molecule itself; test: cross-linking

Row | Molecule | stoichiometry N [1] | stoichiometry N [2]
1 | NS5A-ΔN39 (residues 39-447), recombinant, lacking the membrane-binding amphipathic helix (from UniProt Q9WMX2 40-448) (domain or fragment) | 2 | –
2 | B1 | – | 2
3 | B2 | – | 2
